The results in this text go back to patent US20250152717A1 (published 2025).

The experiment deals with T1, KRAS G12V (same sequence in NRAS and HRAS G12V) peptide on HLA-A*11:01 (human).
T1 peptide: VVGAVGVGK
Briefly: stated without data.

B1: TCR 11N6 (TCR, V domains shown)
Valpha: QQGEEDPQALSIQEGENATMNCSYKTSINNLQWYRQNSGRGLVHLILIRSNEREKHSGRLRVTLDTSKKSSSLLITASRAADTASYFCATDPMNTNAGKSTFGDGTTLTVKP
Vbeta: GVAQSPRYKIIEKRQSVAFWCNPISGHATLYWYQQILGQGPKLLIQFQNNGVVDDSQLPKDRFSAERLKGVDSTLKIQPAKLEDSAVYLCASSPYGGSVSYEQYFGPGTRLTVT
Regarding B1, the binding result is “recognises”.
